Laboratory results published in US20240190956A1 (published 2024).

biological target: folate receptor alpha (FR-α) (human, UniProt P15328 25-234); assay: FACS binding on T47D cells
Sequence (P15328 25-234): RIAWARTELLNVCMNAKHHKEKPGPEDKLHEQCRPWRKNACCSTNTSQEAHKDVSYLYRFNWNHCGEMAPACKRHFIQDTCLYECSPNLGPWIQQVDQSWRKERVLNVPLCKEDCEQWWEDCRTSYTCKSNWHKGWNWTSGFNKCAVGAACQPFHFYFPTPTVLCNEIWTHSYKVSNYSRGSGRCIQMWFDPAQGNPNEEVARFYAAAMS

| Binder | EC50 [pM] |
| --- | --- |
| huMOV19 (antibody) heavy: not shown light: DIVLTQSPLSLAVSLGQPAIISCKASQSVSFAGTSLMHWYHQKPGQQPRLLIYRASNLEAGVPDRFSGSGSKTDFTLTISPVEAEDAATYYCQQSREYPYTFGGGTKLEIKRTVAAPSVFIFPPSDEQLKSGTASVVCLLNNFYPREAKVQWKVDNALQSGNSQESVTEQDSKDSTYSLSSTLTLSKADYEKHKVYACEVTHQGLSSPVTKSFNRGEC | 323 |
| huMOV19-NTS #2-Linker1-Compound A (antibody, N-terminal Ser oxidized to an aldehyde and linked through Linker1 to Compound A (sulfonated DGN462); two Compound A molecules per antibody) heavy: not shown light: DIVLTQSPLSLAVSLGQPAIISCKASQSVSFAGTSLMHWYHQKPGQQPRLLIYRASNLEAGVPDRFSGSGSKTDFTLTISPVEAEDAATYYCQQSREYPYTFGGGTKLEIKRTVAAPSVFIFPPSDEQLKSGTASVVCLLNNFYPREAKVQWKVDNALQSGNSQESVTEQDSKDSTYSLSSTLTLSKADYEKHKVYACEVTHQGLSSPVTKSFNRGEC | 881 |

The remaining lines, values ahead:

| EC50 [pM] | Binder |
| --- | --- |
| 426 | huMOV19-sSPDB-Compound A (antibody, Compound A linked through a sulfo-SPDB linker to amino groups of lysine residues, positions not given; Compound A linked through a sulfo-SPDB linker to amino groups of lysine residues, positions not given; average 2.4 Compound A per antibody) heavy: not shown light: DIVLTQSPLSLAVSLGQPAIISCKASQSVSFAGTSLMHWYHQKPGQQPRLLIYRASNLEAGVPDRFSGSGSKTDFTLTISPVEAEDAATYYCQQSREYPYTFGGGTKLEIKRTVAAPSVFIFPPSDEQLKSGTASVVCLLNNFYPREAKVQWKVDNALQSGNSQESVTEQDSKDSTYSLSSTLTLSKADYEKHKVYACEVTHQGLSSPVTKSFNRGEC |
| 243 | huMOV19-NTS #2 (antibody) heavy: not shown light: DIVLTQSPLSLAVSLGQPAIISCKASQSVSFAGTSLMHWYHQKPGQQPRLLIYRASNLEAGVPDRFSGSGSKTDFTLTISPVEAEDAATYYCQQSREYPYTFGGGTKLEIKRTVAAPSVFIFPPSDEQLKSGTASVVCLLNNFYPREAKVQWKVDNALQSGNSQESVTEQDSKDSTYSLSSTLTLSKADYEKHKVYACEVTHQGLSSPVTKSFNRGEC |
